{
  "source": "paper PMC10107573",
  "about": "(Nature Communications, 2023)",
  "molecular_target": "T1, SARS-CoV-2 Omicron BA.1 spike ectodomain (S trimer) (SARS-CoV-2 Omicron BA.1, S371L | S373P | S375F | S477N | E484A)",
  "T1 construct": "also called BA.1 S trimer",
  "assay": "cryo-EM structure",
  "conditions": "both partners purified",
  "data": [
    {"binder": "10-5B Fab (Fab, V domains shown, also called 10-5B Fab fragments) VH: EVQLVESGGGLIQPGGSLRLSCAVSGFTVSRMSWVRQAPGKGLECVSVIYTGGNTDYADSVKGRFTISRDNSKNTLYLQMNSLRAEDTALYYCVRGSGGIHDAFDIWGQGTMVTVSS VL: DIQMTQSPSSVSASVGDRVTITCRASQGISTWLAWYQQKPGKAPKVLINAASGLQSGVPSRFSGSGSGTDFTLTISSLQPEDFATYYCQQAHSFPPTFGPGTKLEIK", "values": [
      {"measurement": "stoichiometry N", "result": 3, "unit": "Fabs per S trimer"}
    ]}
  ]
}
